Assay results reported in patent publication EP4818204A1 (Nanjing Leads Biolabs Co., Ltd., dated 2026).

What was measured:
Assay in all cases: ELISA, coated protein, antibody at 4 µg/mL
human GDF11 protein = target: T1, human GDF11 protein (human, UniProt O95390 299-407)
T1 construct: Bought
T1 sequence (looked up): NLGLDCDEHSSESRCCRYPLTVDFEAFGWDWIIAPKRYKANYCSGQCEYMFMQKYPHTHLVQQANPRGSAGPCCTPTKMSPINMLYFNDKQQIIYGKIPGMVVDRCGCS

human GFRα1 protein = target: T2, human GFRα1 protein (human, UniProt P56159 25-429, limits assumed)
T2 construct: Bought
T2 sequence (looked up): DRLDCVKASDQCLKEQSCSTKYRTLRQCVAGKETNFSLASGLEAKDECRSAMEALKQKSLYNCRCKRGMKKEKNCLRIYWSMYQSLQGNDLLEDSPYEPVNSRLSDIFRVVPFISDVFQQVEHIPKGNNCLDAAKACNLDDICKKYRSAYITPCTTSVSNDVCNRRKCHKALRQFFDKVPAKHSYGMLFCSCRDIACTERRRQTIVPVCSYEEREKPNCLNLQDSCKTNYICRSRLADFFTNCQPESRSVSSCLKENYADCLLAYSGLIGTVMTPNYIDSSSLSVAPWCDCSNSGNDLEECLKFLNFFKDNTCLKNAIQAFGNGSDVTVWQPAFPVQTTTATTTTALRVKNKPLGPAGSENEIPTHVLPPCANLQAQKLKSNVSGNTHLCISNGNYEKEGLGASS

human GDF2 protein = target: T3, human GDF2 protein (human, UniProt Q9UK05 320-429)
T3 construct: Bought
T3 sequence (looked up): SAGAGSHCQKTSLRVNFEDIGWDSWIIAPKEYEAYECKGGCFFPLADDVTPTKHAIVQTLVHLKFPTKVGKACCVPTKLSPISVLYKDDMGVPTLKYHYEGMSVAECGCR

human Activin B protein = target: T4, human Activin B protein (human, UniProt P09529 293-407)
T4 construct: Bought; Activin B is by nature a dimer of inhibin beta B chains
T4 sequence (looked up): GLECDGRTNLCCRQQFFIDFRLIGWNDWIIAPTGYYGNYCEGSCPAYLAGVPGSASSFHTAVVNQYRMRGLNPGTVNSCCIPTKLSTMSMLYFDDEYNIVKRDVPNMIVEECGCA

human GDF3 protein = target: T5, human GDF3 protein (human, UniProt Q9NR23 251-364, limits assumed)
T5 construct: Bought
T5 sequence (looked up): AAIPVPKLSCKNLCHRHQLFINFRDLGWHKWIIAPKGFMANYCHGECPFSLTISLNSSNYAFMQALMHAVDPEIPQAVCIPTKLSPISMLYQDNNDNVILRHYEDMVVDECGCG

B1: Hu19C4C7 (antibody, human IgG1, kappa)
heavy: QVQLVQSGAEVKKPGSSVKVSCKASGYSFTGYIMNWVRQAPGQSLEWMGDIDPYYGGPNYNQKFQGRVTITVDKSTSTAYMELSSLRSEDTAVYYCSRRDYNYGSFAYWGQGTLVTVSSASTKGPSVFPLAPSSKSTSGGTAALGCLVKDYFPEPVTVSWNSGALTSGVHTFPAVLQSSGLYSLSSVVTVPSSSLGTQTYICNVNHKPSNTKVDKKVEPKSCDKTHTCPPCPAPEAAGAPSVFLFPPKPKDTLMISRTPEVTCVVVDVSHEDPEVKFNWYVDGVEVHNAKTKPREEQYNSTYRVVSVLTVLHQDWLNGKEYKCKVSNKALPAPIEKTISKAKGQPREPQVYTLPPSREEMTKNQVSLTCLVKGFYPSDIAVEWESNGQPENNYKTTPPVLDSDGSFFLYSKLTVDKSRWQQGNVFSCSVMHEALHNHYTQKSLSLSPGK
light: QIVLTQSPATLSLSPGERATLSCRASSSVNYMHWYQQKPGQAPRPLIYATSNLATGIPARFSGSGSGTDYTLTISSLEPEDFAVYYCQQWSDNPPTFGQGTKLEIKRTVAAPSVFIFPPSDEQLKSGTASVVCLLNNFYPREAKVQWKVDNALQSGNSQESVTEQDSKDSTYSLSSTLTLSKADYEKHKVYACEVTHQGLSSPVTKSFNRGEC
notes: Humanized form of murine 19C4C7; human IgG1 constant region with L234A, L235A, G237A and kappa light chain constant region; also called hu19C4C7-IgG1-mut(L234A,L235A,G237A)
OD value (human GDF11 protein): 0.0735 OD 450 nm-620 nm | OD value (human GFRα1 protein): 0.11 OD 450 nm-620 nm | OD value (human GDF2 protein): 0.0616 OD 450 nm-620 nm | OD value (human Activin B protein): 0.12 OD 450 nm-620 nm | OD value (human GDF3 protein): 0.0862 OD 450 nm-620 nm
